B1: Protein Nef (Human immunodeficiency virus type 1 group M subtype B (isolate Lai)), Q9QPN3 (parent)
chain: MGGKWSKSSVVGWPAVRERMRRAEPAADGVGAVSRDLEKHGAITSSNTAATNADCAWLEAQEEEEVGFPVTPQVPLRPMTYKAAVDLSHFLKEKGGLEGLIHSQRRQDILDLWIYHTQGYFPDWQNYTPEPGVRYPLTFGWCYKLVPVEPDKVEEANKGENTRLLHPVSLHGMDDPEREVLEWRFDSRLAFHHVARELHPEY
partner: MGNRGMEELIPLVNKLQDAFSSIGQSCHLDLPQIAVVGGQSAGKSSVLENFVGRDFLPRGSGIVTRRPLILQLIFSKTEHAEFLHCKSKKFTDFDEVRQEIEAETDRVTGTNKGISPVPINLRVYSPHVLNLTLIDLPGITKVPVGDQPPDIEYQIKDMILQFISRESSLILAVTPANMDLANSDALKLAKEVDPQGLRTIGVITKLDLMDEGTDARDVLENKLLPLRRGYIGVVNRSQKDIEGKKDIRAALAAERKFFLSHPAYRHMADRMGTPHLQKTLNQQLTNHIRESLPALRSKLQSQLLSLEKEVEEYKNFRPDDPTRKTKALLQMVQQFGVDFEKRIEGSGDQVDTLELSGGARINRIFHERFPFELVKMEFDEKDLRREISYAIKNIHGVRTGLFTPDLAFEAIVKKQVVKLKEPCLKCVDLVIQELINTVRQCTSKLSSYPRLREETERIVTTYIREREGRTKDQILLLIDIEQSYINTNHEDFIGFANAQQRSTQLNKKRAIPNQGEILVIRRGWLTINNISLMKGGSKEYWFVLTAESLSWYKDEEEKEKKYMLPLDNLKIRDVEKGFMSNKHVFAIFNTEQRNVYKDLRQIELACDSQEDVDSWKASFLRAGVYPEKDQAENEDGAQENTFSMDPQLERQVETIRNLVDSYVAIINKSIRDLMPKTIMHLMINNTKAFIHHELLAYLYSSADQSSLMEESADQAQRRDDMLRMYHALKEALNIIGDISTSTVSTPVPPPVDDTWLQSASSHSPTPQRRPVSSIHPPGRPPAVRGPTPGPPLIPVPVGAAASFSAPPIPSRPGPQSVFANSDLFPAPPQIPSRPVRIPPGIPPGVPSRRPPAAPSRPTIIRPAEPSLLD

Variants of: B1
Conditions: with dyn2_human DNM2, P50570

Row | Variant | effect of a mutation on the interaction
1 | L112A | decreasing interaction strength
2 | G2A;G3A | disrupting interaction strength
3 | F121A | decreasing interaction strength
4 | D123A | decreasing interaction strength
5 | F121A;D123A | disrupting interaction strength
